In paper PMC13233820 (2026):

Assays:
yeast Smt3 (Smt3-6xHis) [1] = biological target: T1, yeast Smt3 (Smt3-6xHis) (S. cerevisiae, UniProt Q12306 1-101 = SUMO, U-[13C,15N] labelled in the NMR experiments); assay: ITC; Smt3 300 uM
T1 chain: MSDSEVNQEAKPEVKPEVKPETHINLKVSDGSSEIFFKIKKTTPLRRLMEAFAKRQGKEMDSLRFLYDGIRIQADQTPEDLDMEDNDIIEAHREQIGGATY

yeast Smt3 (Smt3-6xHis) [2] = biological target: T1, yeast Smt3 (Smt3-6xHis); assay: ITC; Smt3 150 uM

Binder: ENDIIMVSTDE [synthetic Mre11-SIM3 peptide, wild type]
- Kd (yeast Smt3 (Smt3-6xHis) [1]): 15.3 µM
- Kd (yeast Smt3 (Smt3-6xHis) [2]): 30.2 µM
